Patent publication US20210373004A1 (BIOASTER, published 2021)

How the values were obtained:
Flag-EmGFP-ColE7-6His [1] = biological target: T1, Flag-EmGFP-ColE7-6His (Escherichia coli); test: EIA 8 plex n° 1: colicin coated at 100 nM, Im-RLuc8 alone at 100 nM, luciferase signal
T1 construct: also called Colicin E7

[2] = biological target: T2, Flag-mCherry-ColAP41-Cys-6His (Pseudomonas aeruginosa AP41); test: as above
[3] = biological target: T3, Flag-mCherry-ColSyr-Cys-6His (Pseudomonas syringae B728A); test: as above
Flag-mCherry-ColE8-6His [4] = biological target: T4, Flag-mCherry-ColE8-6His (Escherichia coli); test: EIA 8 plex n° 2: colicin coated at 100 nM, Im-RLuc8 alone at 100 nM, luciferase signal
T4 construct: also called Colicin E8

[5] = biological target: T5, Flag-mCherry-ColLeaf-Cys-6His (Pseudomonas sp Leaf83); test: as above
Flag-mCherry-ColE9-6His [6] = biological target: T6, Flag-mCherry-ColE9-6His (Escherichia coli); test: EIA 4 plex: colicin coated at 100 nM, Im-RLuc8 alone at 100 nM, luciferase signal (FIG. 1, light grey bars)
T6 construct: also called Colicin E9

Flag-mCherry-ColE9-6His [7] = biological target: T6, Flag-mCherry-ColE9-6His; test: EIA 8 plex n° 1: colicin coated at 100 nM, Im-RLuc8 alone at 100 nM, luciferase signal (FIG. 3, light grey bars)
Flag-mCherry-ColE9-6His [8] = biological target: T6, Flag-mCherry-ColE9-6His; test: EIA 8 plex n° 2: colicin coated at 100 nM, Im-RLuc8 alone at 100 nM, luciferase signal (FIG. 4, light grey bars)
Flag-EmGFP-ColE7-6His [9] = biological target: T1, Flag-EmGFP-ColE7-6His; test: kinetics, literature value (Li W. et al., 2004) printed above the bar pair; unit from the legend paragraph 10
Flag-mCherry-ColE8-6His [10] = biological target: T4, Flag-mCherry-ColE8-6His; test: as above
Flag-mCherry-ColE9-6His [11] = biological target: T6, Flag-mCherry-ColE9-6His; test: as above
[12] = biological target: T2, Flag-mCherry-ColAP41-Cys-6His; test: EIA 8 plex n° 1: colicin coated at 100 nM, Im-RLuc8 at 100 nM, luminescence; light bar alone, dark bar with the 7 other unfused Im proteins
[13] = biological target: T3, Flag-mCherry-ColSyr-Cys-6His; test: as above
[14] = biological target: T5, Flag-mCherry-ColLeaf-Cys-6His; test: EIA 8 plex n° 2: colicin coated at 100 nM, Im-RLuc8 at 100 nM, luminescence; light bar alone, dark bar with the 7 other unfused Im proteins

B1: Myc-RLuc8-Im9-6His (other)
chain: MGGEQKLISEEDLGGSASKVYDPEQRKRMITGPQWWARCKQMNVLDSFINYYDSEKHAENAVIFLHGNATSSYLWRHVVPHIEPVARCIIPDLIGMGKSGKSGNGSYRLLDHYKYLTAWFELLNLPKKIIFVGHDWGAALAFHYAYEHQDRIKAIVHMESVVDVIESWDEWPDIEEDIALIKSEEGEKMVLENNFFVETVLPSKIMRKLEPEEFAAYLEPFKEKGEVRRPTLSWPREIPLVKGGKPDVVQIVRNYNAYLRASDDLPKLFIESDPGFFSNAIVEGAKKFPNTEFVKVKGLHFLQEDAPDEMGKYIKSFVERVLKNEQKLELKHSISDYTEAEFLQLVTTICNADTSSEEELVKLVTHFEEMTEHPSGSDLIYYPKEGDDDSPSGIVNTVKQWRAANGKLEGGGSHHHHHH
notes: Immunity protein fused to the luciferase RLuc8 as reporter; added in solution; also called Im9-RLuc8; Im9-Rluc8
- RLU (Flag-EmGFP-ColE7-6His [1]): > 100000 RLU
- RLU [2]: > 100000 RLU
- RLU [3]: > 100000 RLU
- RLU (Flag-mCherry-ColE8-6His [4]): > 100000 RLU
- RLU [5]: > 100000 RLU
- RLU (Flag-mCherry-ColE9-6His [6]): > 400000 RLU
- RLU (Flag-mCherry-ColE9-6His [7]): > 2e+06 RLU
- RLU (Flag-mCherry-ColE9-6His [8]): > 2.4e+06 RLU
- Kd (Flag-EmGFP-ColE7-6His [9]): 38 nM
- Kd (Flag-mCherry-ColE8-6His [10]): 64 nM
- Kd (Flag-mCherry-ColE9-6His [11]): 0.024 pM
- binding result [12]: no binding (tested: 100 nM)
- binding result [13]: no binding (tested: 100 nM)
- binding result [14]: no binding (tested: 100 nM)
